Patent US20250000991A1, “NECTIN-4 ANTIBODIES AND ANTIBODY-DRUG CONJUGATES” (Eli Lilly and Company, priority 2023, published 2025)

Assays:
[1] = tested on: UM-UC-3 Nectin4 clone F7 xenograft; assay: Tumor xenograft, high nectin-4 expression; format: in vivo, mice (nu/nu); conditions: UMUC3 Nectin-4 clone F7 xenograft, single dose 2 mg/kg, day 40
Method: In order to test the efficacy of the nectin-4 ADCs of the present disclosure, which have effector null mutations in the Fc region, and to compare to the enfortumab antibody, which has wildtype Fc and in an ADC with the same payload background as the ones of this disclosure, two tumor xenograft models with either high or moderate nectin-4 expression were tested as described. Immune compromised female mice (nu/nu) between 5-8 weeks of age with weight 18-20 grams were implanted unilaterally on the right flank with UM-UC-3 Nectin4 clone F7 cells with high nectin-4 expression. […] The test articles were given at a single dose (2 mg/kg) formulated with 5% dextrose. Tumors were measured biweekly until Day 40.

MDA-MB-468 xenograft = assay: Tumor xenograft, moderate nectin-4 expression; format: in vivo, NSG mice; conditions: MDAMB468 xenograft, single dose 2 mg/kg, day 71
Method: In a separate study, female NSG mice between 5-6 weeks of age were injected subcutaneously with MDA-MB-468 cells with moderate Nectin-4 expression. When tumors reached approximately 150-250 mm^3; animals were matched by tumor volume into treatment or control groups and dosing initiated (Day 0, n=8 per group). The test articles were given at a single dose (2 mg/kg) formulated with 5% Dextrose. Tumors were measured biweekly until Day 71.
In both models, a 2 mg/kg single dose treatment of either the nectin-4 ADCs (exemplified herein with each of Abs1-8 conjugated as in Formula XI, and with a DAR of 8) or benchmark enfortumab ADC (enfortumab conjugated with Formula XI, and with a DAR of 8) was used. Tumor growth was measured at day 40 for UMUC3 Nectin-4 clone F7 and day 71 for MDAMB468 xenografts.

Molecule | Mean tumor volume [1] [mm^3] | Mean tumor volume (MDA-MB-468 xenograft) [mm^3]
Ab6 ADC: Ab6 conjugated as in Formula XI, and with a DAR of 8 (conjugate) heavy: QVQLVQSGAEVKKPGASVKVSCKASGYTFTGYYMHWVRQAPGQGLEWMGIINPSGGSTTYAQKFQGRVTMTRDTSTSTVYMELSSLRSEDTAVYYCARGRLGTYFDYWGQGTLVTVSSASTKGPSVFPLAPSSKSTSGGTAALGCLVKDYFPEPVTVSWNSGALTSGVHTFPAVLQSSGLYSLSSVVTVPSSSLGTQTYICNVNHKPSNTKVDKRVEPKSCDKTHTCPPCPAPEAAGGPSVFLFPPKPKDTLMISRTPEVTCVVVSVSHEDPEVKFNWYVDGVEVHNAKTKPREEQYNSTYRVVSVLTVLHQDWLNGKEYKCKVSNKALPAPIEKTISKAKGQPREPQVYTLPPSREEMTKNQVSLTCLVKGFYPSDIAVEWESNGQPENNYKTTPPVLDSDGSFFLYSKLTVDKSRWQQGNVFSCSVMHEALHNHYTQKSLSLSPGK light: SYVLTQPPSVSVAPGQTARITCGGNNIGSKSVHWYQQKPGQAPVLVVYDDSDRPSGIPERFSGSNSGNTATLTISRVEAGDEADYYCQVWDRSSDQVVFGGGTKLTVLGQPKAAPSVTLFPPSSEELQANKATLVCLISDFYPGAVTVAWKADSSPVKAGVETTTPSKQSNNKYAASSYLSLTPEQWKSHRSYSCQVTHEGSTVEKTVAPTECS | 866.94 | 304.9
Ab1a ADC: Ab1a conjugated as in Formula XI, and with a DAR of 8 (conjugate) heavy: QVQLVQSGAQVKKPGASVKVSCKASGYTFTGYYIHWVRQAPGQGLEWMGWINPNSGGTNYAQKFQGRVTMTRDTSISTAYMELSRLRSDDTAVYFCAREDWDFDYWGQGTLVTVSSASTKGPSVFPLAPSSKSTSGGTAALGCLVKDYFPEPVTVSWNSGALTSGVHTFPAVLQSSGLYSLSSVVTVPSSSLGTQTYICNVNHKPSNTKVDKRVEPKSCDKTHTCPPCPAPEAAGGPSVFLFPPKPKDTLMISRTPEVTCVVVSVSHEDPEVKFNWYVDGVEVHNAKTKPREEQYNSTYRVVSVLTVLHQDWLNGKEYKCKVSNKALPAPIEKTISKAKGQPREPQVYTLPPSREEMTKNQVSLTCLVKGFYPSDIAVEWESNGQPENNYKTTPPVLDSDGSFFLYSKLTVDKSRWQQGNVFSCSVMHEALHNHYTQKSLSLSPGK light: EIVLTQSPGTLSLSPGERATLSCRTSQSVSSSYLAWYQQKPGQAPRLLIYGASNRATDIPDRFSGSGSGTDFTLTINRLEPEDFAVYYCQQYGSSPITFGQGTRLEIKRTVAAPSVFIFPPSDEQLKSGTASVVCLLNNFYPREAKVQWKVDNALQSGNSQESVTEQDSKDSTYSLSSTLTLSKADYEKHKVYACEVTHQGLSSPVTKSFNRGEC | 234.79 | 135.24
Ab3 ADC: Ab3 conjugated as in Formula XI, and with a DAR of 8 (conjugate) heavy: EVQLVESGGGLVKPGGSLRLSCAASGFNLNHYNMNWVRQAPGKGLEWVSSVSSGGGFRYYADSVRGRFTISRDNAKNSLYLQMNSLRAEDTAVYYCARGAVFHDAFDIWGQGTLVTVSSASTKGPSVFPLAPSSKSTSGGTAALGCLVKDYFPEPVTVSWNSGALTSGVHTFPAVLQSSGLYSLSSVVTVPSSSLGTQTYICNVNHKPSNTKVDKRVEPKSCDKTHTCPPCPAPEAAGGPSVFLFPPKPKDTLMISRTPEVTCVVVSVSHEDPEVKFNWYVDGVEVHNAKTKPREEQYNSTYRVVSVLTVLHQDWLNGKEYKCKVSNKALPAPIEKTISKAKGQPREPQVYTLPPSREEMTKNQVSLTCLVKGFYPSDIAVEWESNGQPENNYKTTPPVLDSDGSFFLYSKLTVDKSRWQQGNVFSCSVMHEALHNHYTQKSLSLSPGK light: DIQLTQSPSFLSASVGDRVTITCRASQDISSYLAWYQQKPGKAPKLLIYVASTLQSGVPSRFSGSGSGTEFTLTISSLQPEDFATYYCQQINSYPFTFGQGTKVEIKRTVAAPSVFIFPPSDEQLKSGTASVVCLLNNFYPREAKVQWKVDNALQSGNSQESVTEQDSKDSTYSLSSTLTLSKADYEKHKVYACEVTHQGLSSPVTKSFNRGEC | 993.45 | 366.45
Ab4 ADC: Ab4 conjugated as in Formula XI, and with a DAR of 8 (conjugate) heavy: QVQLQESGPGLVKPSETLSLTCTVSGGSISGYYWSWIRQPPGKGLEWIGYIYYSGSTNYNPSLKSRVTISVDTSKNQFSLKLSSVTAADTAVYYCARLGIFFDAFDIWGQGTLVTVSSASTKGPSVFPLAPSSKSTSGGTAALGCLVKDYFPEPVTVSWNSGALTSGVHTFPAVLQSSGLYSLSSVVTVPSSSLGTQTYICNVNHKPSNTKVDKRVEPKSCDKTHTCPPCPAPEAAGGPSVFLFPPKPKDTLMISRTPEVTCVVVSVSHEDPEVKFNWYVDGVEVHNAKTKPREEQYNSTYRVVSVLTVLHQDWLNGKEYKCKVSNKALPAPIEKTISKAKGQPREPQVYTLPPSREEMTKNQVSLTCLVKGFYPSDIAVEWESNGQPENNYKTTPPVLDSDGSFFLYSKLTVDKSRWQQGNVFSCSVMHEALHNHYTQKSLSLSPGK light: DIQLTQSPSFLSASVGDRVTITCRASQGISSYLAWYQQKPGKAPKLLIYAASTLQSGVPSRFSGSGSGTEFTLTISSLQPEDFATYYCQQFNSYPWTFGQGTKVEIKRTVAAPSVFIFPPSDEQLKSGTASVVCLLNNFYPREAKVQWKVDNALQSGNSQESVTEQDSKDSTYSLSSTLTLSKADYEKHKVYACEVTHQGLSSPVTKSFNRGEC | 928.09 | 343.65
Ab5 ADC: Ab5 conjugated as in Formula XI, and with a DAR of 8 (conjugate) heavy: QVQLVQSGAEVKKPGASVKVSCKASGYTFTSYYVHWVRQAPGQGLEWMGIINPSIISTSYAQKFQARVTMTRDTSTSTVYMELSSLRSEDTAVYYCARGLNFDAFDIWGQGTLVTVSSASTKGPSVFPLAPSSKSTSGGTAALGCLVKDYFPEPVTVSWNSGALTSGVHTFPAVLQSSGLYSLSSVVTVPSSSLGTQTYICNVNHKPSNTKVDKRVEPKSCDKTHTCPPCPAPEAAGGPSVFLFPPKPKDTLMISRTPEVTCVVVSVSHEDPEVKFNWYVDGVEVHNAKTKPREEQYNSTYRVVSVLTVLHQDWLNGKEYKCKVSNKALPAPIEKTISKAKGQPREPQVYTLPPSREEMTKNQVSLTCLVKGFYPSDIAVEWESNGQPENNYKTTPPVLDSDGSFFLYSKLTVDKSRWQQGNVFSCSVMHEALHNHYTQKSLSLSPGK light: DIQLTQSPSFLSASVGDRVTITCRASQGISSYLAWYQQKPGKAPKLLIYAASTLQSGVPSRFSGSGSGTEFTLTISSLQPEDFATYYCQQLNNYPFTFGQGTKVEIKRTVAAPSVFIFPPSDEQLKSGTASVVCLLNNFYPREAKVQWKVDNALQSGNSQESVTEQDSKDSTYSLSSTLTLSKADYEKHKVYACEVTHQGLSSPVTKSFNRGEC | 632.99 | 220.38
